We go through 1 molecule from patent US20100324271A1 (TOKAI UNIVERSITY EDUCATIONAL SYSTEM, published 2010).

The experiment addresses T1, fetuin (UniProt P12763 19-359, carrying complex type and O-linked oligosaccharides).
T1 construct: Natural glycoprotein, separated by SDS-PAGE and blotted onto PVDF; also called fetuin carrying complex type and O-linked oligosaccharides
T1 sequence (looked up): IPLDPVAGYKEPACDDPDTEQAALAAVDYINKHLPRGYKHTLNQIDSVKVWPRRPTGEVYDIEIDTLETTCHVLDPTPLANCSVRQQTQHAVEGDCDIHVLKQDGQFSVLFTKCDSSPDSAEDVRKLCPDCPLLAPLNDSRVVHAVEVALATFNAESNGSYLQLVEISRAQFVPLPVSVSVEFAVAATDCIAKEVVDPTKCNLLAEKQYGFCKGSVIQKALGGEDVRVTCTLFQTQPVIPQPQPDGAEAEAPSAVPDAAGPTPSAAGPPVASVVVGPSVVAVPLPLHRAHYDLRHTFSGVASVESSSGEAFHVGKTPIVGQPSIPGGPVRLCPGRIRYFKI
Briefly: Western blot, 5 µg/lane on PVDF, phage detected with HRP-labeled anti-M13 antibody. How it is done:
Fetuin, asialo-fetuin, RNase A, and RNase B (5 μg/lane) were separated by SDS-polyacrylamide gel electrophoresis (10% gel) and blotted onto a PVDF membrane. The SDS-PAGE gel was stained with Coomassie Brilliant Blue. The reactivity of phage antibody to natural glycoproteins was examined by Western blotting with M3-7 phage antibody followed by HRP-labeled anti-M13 phage antibody as described above.
On the technique in general: A western blot detects proteins with antibodies after separation by electrophoresis.

B1: M3-7 phage antibody (scFv, V domains shown)
VH: QVQLQQSGPGLVKASETLSLTCAVSGYSISSGYYWGWIRQPPGKGLEWIGNIYHSGNTYYNPSLKSRVTISRDTSKNHFSLKLKSVTAADTAVYYCARADPGYMIFNWFDPWGQGTLVTVSS
VL: NFMLTQPPSASGTPGQRVTISCSGSSSNIGNNDVYWYQQFPGTAPKLLIYRNNQRPSGVPDRFSGSKSGTSASLAISGLRSEDEADYYCAAWDDSLIFGGGTKLTVLG
notes: also called Man3-specific scFv-displaying phage antibody
Turning to B1, the binding result was “no binding”.
